Data published in publication PMC10517255, “Cysteine Enrichment Mediates Co-Option of Uricase in Reptilian Skin and Transition to Uricotelism” (Molecular Biology and Evolution, 2023).
Changes are numbered by the printed parent chain. Values belong to the molecule of their own block, whether it stands above or below them.

Tests used:
[1] = target: Gallus gallus Uox (cysteine-rich urate oxidase) (Gallus gallus); test: atomic force microscopy; particle volume of the enzyme on mica, native or pre-incubated with βME, 100 nM protein in 4 mM HEPES pH 7.4, 10 mM NaCl, 2 mM MgCl2, imaged in air, tapping mode
[2] = target: Gallus gallus Uox (cysteine-rich urate oxidase) (Gallus gallus); test: SEC; purified GgUox, single peak (supplementary fig. S4B)
[3] = target: Gallus gallus Uox (cysteine-rich urate oxidase) (Gallus gallus); test: crystal structure; GgUox with uncleaved N-terminal His tag in complex with the inhibitor 8-azaxanthine; space groups C222_(1) and P2_(1)2_(1)2_(1); reduced, and oxidised by a 100 mM H2O2 soak for 15 min
DrUox = target: T1, DrUox (Danio rerio, UniProt Q6DG85); test: stopped flow, single turnover, diode array; type: biochemical; details: 35 μM enzyme, 25 μM urate, 100 mM potassium phosphate pH 7.6, 25°C
T1 construct: gene uox; enzyme described in Marchetti et al. 2016; tetrameric, about 150 kDa
T1 sequence (Q6DG85 1-298): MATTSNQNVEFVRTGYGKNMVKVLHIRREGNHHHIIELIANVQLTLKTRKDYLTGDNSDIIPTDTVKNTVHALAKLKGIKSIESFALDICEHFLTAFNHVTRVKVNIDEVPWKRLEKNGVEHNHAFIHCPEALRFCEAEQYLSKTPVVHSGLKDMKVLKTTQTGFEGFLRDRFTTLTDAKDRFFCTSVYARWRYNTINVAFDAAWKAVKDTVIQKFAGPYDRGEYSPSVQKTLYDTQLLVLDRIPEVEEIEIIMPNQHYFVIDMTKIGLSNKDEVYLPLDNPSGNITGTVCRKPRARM

GgUox [4] = target: T2, GgUox (Gallus gallus, UniProt A0A8V0ZED1, Y230H); test: uricase activity, specific activity; type: biochemical; details: activity relative to wild type
T2 construct: gene LOC101747367; uricase-like CDS in pET28 (NheI/XhoI), N-terminal His-tag with thrombin site (uncleaved for crystals)
T2 sequence (A0A8V0ZED1 1-320 Y230H): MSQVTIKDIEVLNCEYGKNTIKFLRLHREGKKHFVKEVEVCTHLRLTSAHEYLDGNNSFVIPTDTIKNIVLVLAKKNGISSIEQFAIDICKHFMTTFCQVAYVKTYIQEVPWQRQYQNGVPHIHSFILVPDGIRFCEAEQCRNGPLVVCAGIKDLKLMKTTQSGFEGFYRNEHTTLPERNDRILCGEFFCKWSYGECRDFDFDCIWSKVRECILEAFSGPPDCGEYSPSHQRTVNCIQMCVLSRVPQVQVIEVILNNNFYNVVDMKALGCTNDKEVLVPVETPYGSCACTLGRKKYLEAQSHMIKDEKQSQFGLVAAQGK

GgUox [5] = target: T3, GgUox (Gallus gallus, UniProt A0A8V0ZED1); test: X-ray crystallography, […]-2.[…] Å, reduced and H2O2-oxidized crystals; type: binding; details: active site at dimer interface; uncleaved His-tag; space groups P2_12_12_1 and C222_1
T3 construct: gene LOC101747367; uricase-like CDS in pET28 (NheI/XhoI), N-terminal His-tag with thrombin site (uncleaved for crystals)
T3 sequence (A0A8V0ZED1 1-320): T2 sequence (A0A8V0ZED1 1-320 Y230H) with H230Y

purified protein = substrate: O=c1[nH]c(=O)c2[nH]c(=O)[nH]c2[nH]1; test: purified protein; type: biochemical, Gallus gallus; details: 100 mM potassium phosphate pH 7.6, 25°C, 4.1 µM GgUox, 1 µM HIUase, 2-140 μM urate
[6] = target: the molecule itself; test: atomic force microscopy; particle volume of the enzyme on mica, native or pre-incubated with βME, 100 nM protein in 4 mM HEPES pH 7.4, 10 mM NaCl, 2 mM MgCl2, imaged in air, tapping mode

stoichiometry N [1]: 4
stoichiometry N [2]: 4
stoichiometry N [3]: 4
Molecule: Gallus gallus Uox (cysteine-rich urate oxidase) (enzyme)

Molecule: O=c1[nH]c(=O)c2[nH]c(=O)[nH]c2[nH]1 [uric acid]
stopped flow, single turnover, diode array (DrUox): the same experiment was carried out with DrUox for comparison
uricase activity, specific activity (GgUox [4]): we mutated the tyrosine in the active site of GgUox to either histidine (Y230H)

Molecule: O=c1[nH]c(=O)c2nn[nH]c2[nH]1 [8-azaxanthine]
X-ray crystallography, 1.7-2.1 Å, reduced and H2O2-oxidized crystals (GgUox [5]): We crystallized GgUox in complex with its AZA inhibitor in two space groups

B1: GgUox (Gallus gallus) (protein)
chain: T2 sequence (A0A8V0ZED1 1-320 Y230H) with H230Y
notes: uricase-like CDS in pET28 (NheI/XhoI), N-terminal His-tag with thrombin site (uncleaved for crystals)
Km (purified protein): 12.5 µM
kcat (purified protein): 0.03 s⁻¹

B2: Danio rerio Uox (enzyme, UniProt Q6DG85 1-298, looked up)
chain: T1 sequence (Q6DG85 1-298)
notes: Danio rerio urate oxidase (DrUox), as in Marchetti et al. 2016; also called DrUox; uricase
stoichiometry N [6]: 4
